Experimental data as given in patent US20180164324A1 (INSERM INSTITUT NATIONAL DE LA SANT ET DE LA RECHERCHE M …, published 2018).
Changes are numbered by the printed parent chain. Numbers in names are those of the source.

Experiments:
[1] = biological target: Ras binding domain of c-Raf (RsBD)-GFP11; assay: tripartite split-GFP complementation in GFP1-9 cells, flow cytometry
[2] = biological target: GFP10-RhoB (wild-type RhoB fused to GFP10); assay: cell-based or functional assay
[3] = biological target: T1, Rho-binding domain of Rhotekin (RBD)-GFP11; assay: tripartite split-GFP complementation in GFP1-9 cells, flow cytometry
T1 construct: also called RBD-11
T1 chain: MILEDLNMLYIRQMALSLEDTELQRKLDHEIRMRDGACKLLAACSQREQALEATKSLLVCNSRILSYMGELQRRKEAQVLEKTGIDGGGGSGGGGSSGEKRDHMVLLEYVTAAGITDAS

[4] = biological target: T1, Rho-binding domain of Rhotekin …; assay: tripartite split-GFP complementation in GFP1-9 cells, fluorescence microscopy
[5] = biological target: reconstituted split-GFP (positive cells: 10-R-11, 10-Zipper-11, 10-zipper/zipper-11 with GFP1-9); assay: cell-based or functional assay

## GFP10-H-Ras G12V (dominant positive, GTP-bound variant)
[1]
  induction ratio of split-GFP fluorescence against GDP-bound (S17N) H-Ras: 3 fold

## cell-permeant recombinant TAT-C3 exoenzyme (from UniProt P15879 41-251)
[2]
  inhibition of RhoB activation (split-GFP fluorescence): > 10 µg/mL

B1: GFP10-RhoB Q63L (constitutively active, dominant positive variant) (other)
chain: MGDLPDDHYLSTQTILSKDLNIDGGGGSGGGGSSGAAIRKKLVVVGDGACGKTCLLIVFSKDEFPEVYVPTVFENYVADIEVDGKQVELALWDTAGLEDYDRLRPLSYPDTDVILMCFSVDSPDSLENIPEKWVPEVKHFCPNVPIILVANKKDLRSDEHVRTELARMKQEPVRTDDGRAMAVRIQAYDYLECSAKTKEGVREVFETATRAALQKRYGSQNGCINCCKVL
notes: also called GFP10-Rho active mutant (Q63L)
[3]
  fold induction of split-GFP fluorescence against the inactive variant (T19N): 5 fold

B2: GFP10-RhoB T19N (dominant negative variant) (other)
chain: B1 chain with T53N, L97Q
[4]
  binding result: no binding

B3: Myc-VHH anti-GFP nanobody (VHH)
VHH: QVQLVESGGALVQPGGSLRLSCAASGFPVNRYSMRWYRQAPGKEREWVAGMSSAGDRSSYEDSVKGRFTISRDDARNTVYLQMNSLKPEDTAVYYCNVNVGFEYWGQGTQVTVSS
[5]
  mean fluorescence intensity of the positive cells: 4 fold
